This passage reports cell internalization %AD/10^6 cells (90 min) (%AD/10^6 cells), membrane bound %AD/10^6 cells (90 min) (%AD/10^6 cells) and IC50 results from article PMC9320808.

For experiment [1], the target named is human PD-L1 expressed on CHO-K1 cells (CHO-K1 hPD-L1) (human) (UniProt Q9NZQ7). Nature of the experiment: radioligand binding.
Experiment [2] deals with PD-L1-6His-tag (Programmed cell Death Ligand 1) of the Cisbio Human PD1/PD-L1 biochemical binding assay (human) (UniProt Q9NZQ7). The experiment in a line: AlphaScreen or HTRF. On the technique in general: In Alpha technology, singlet oxygen from a donor bead excites a nearby acceptor bead.
Chain of PD-L1-6His-tag (Programmed cell Death Ligand 1) of the Cisbio Human PD1/PD-L1 biochemical binding assay (human) (Q9NZQ7 19-238): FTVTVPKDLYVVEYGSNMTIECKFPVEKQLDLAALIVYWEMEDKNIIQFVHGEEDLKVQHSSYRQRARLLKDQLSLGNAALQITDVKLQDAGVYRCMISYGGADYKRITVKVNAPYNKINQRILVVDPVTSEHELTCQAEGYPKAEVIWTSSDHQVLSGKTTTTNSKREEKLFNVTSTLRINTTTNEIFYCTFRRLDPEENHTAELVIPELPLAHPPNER

Chain of human PD-L1 expressed on CHO-K1 cells (CHO-K1 hPD-L1) (human) (Q9NZQ7 19-290): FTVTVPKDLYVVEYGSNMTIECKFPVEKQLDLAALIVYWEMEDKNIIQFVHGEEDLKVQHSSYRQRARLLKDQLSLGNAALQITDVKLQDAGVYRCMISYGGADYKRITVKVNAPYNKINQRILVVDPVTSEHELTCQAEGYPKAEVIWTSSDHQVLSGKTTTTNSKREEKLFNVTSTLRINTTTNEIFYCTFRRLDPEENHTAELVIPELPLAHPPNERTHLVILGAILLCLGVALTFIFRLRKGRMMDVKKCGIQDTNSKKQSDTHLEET

With “[68Ga]Ga-WL12 (WL12 with DOTAGA on Orn13, loaded with 68Ga) (peptide)”, in experiment [1], the cell internalization %AD/10^6 cells (90 min) (%AD/10^6 cells) came out at 19.2 and the membrane bound %AD/10^6 cells (90 min) (%AD/10^6 cells) amounted to 18.2.
For natGa-NJMP1 (peptide), the IC50 in experiment [2] amounted to 25900 nM.
“NJMP1 (BMS78 C-terminally conjugated to Lys(DOTA)NH2) (peptide)” returned an IC50 in experiment [2] of 242 nM.
The same measure, in the same setting: the result for “natGa-WL12 (WL12 with DOTAGA on Orn13, loaded with natGa) (peptide)” reads 12.4 nM.
With [68Ga]Ga-NJMP1 (peptide), in experiment [1], the cell internalization %AD/10^6 cells (90 min) (%AD/10^6 cells) is 1.68 and the membrane bound %AD/10^6 cells (90 min) (%AD/10^6 cells) was 0.36.
BMS78, 14-mer macrocyclic peptide: in experiment [2], the IC50 amounted to 133 nM.

The IC50 is the concentration at which inhibition is half-maximal. A lower IC50 goes with greater potency in that assay.
